This passage reports ECL signal results from US20120058906A1 (published 2012).

Where a chain is given by its changes, count along the chain named.

In experiment [1] the target is T1, rHuman IGF-1 sR (IGF-1 sR), CF (R&D Systems Cat#391-GR) (human, UniProt P08069 31-932).
T1 construct: Purchased soluble receptor; also called insulin-like growth factor-1 soluble receptor; IGF-R1
Briefly: MSD ECL multi-spot plate, antigen immobilized; Fab 40 nM; blank spot 502.

Experiment [2] deals with T2, rHuman P-Cadherin/Fc Chimera, CF (R&D Systems Cat#861-PC) (human, UniProt P22223 108-654).
T2 construct: Purchased Fc chimera; not shown: Fc portion of the purchased chimera
The experiment is described as above.

In experiment [3] the target is T3, rHuman Erythropoietin R/Fc Chimera, CF (R&D Systems Cat#963-ER) (human, UniProt P19235 25-250).
T3 construct: Purchased Fc chimera; also called EPO R/Fc; Epo R; not shown: Fc portion of the purchased chimera
T3 sequence: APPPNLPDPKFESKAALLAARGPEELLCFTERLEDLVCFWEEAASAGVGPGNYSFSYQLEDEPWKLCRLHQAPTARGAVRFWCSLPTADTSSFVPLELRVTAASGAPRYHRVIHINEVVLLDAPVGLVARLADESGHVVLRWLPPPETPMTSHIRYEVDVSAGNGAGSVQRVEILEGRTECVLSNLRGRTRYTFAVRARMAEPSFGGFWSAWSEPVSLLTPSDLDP
The experiment is described as above.

Experiment [4] concerns the target T4, Recombinant Human DLL4 (R&D Systems Cat#1506-D4/CF) (human, UniProt Q9NR61 27-524).
T4 construct: Purchased recombinant protein; also called delta-like protein 4
The experiment is described as above.

Experiment [5] deals with T5, rHuman ErbB2/Fc Chimera, CF (R&D Systems Cat#1129-ER) (human, UniProt P04626 23-652).
T5 construct: Purchased Fc chimera; also called HER2/neu; not shown: Fc portion of the purchased chimera
The experiment is described as above.

Experiment [6] addresses T6, rHuman EGF R/Fc Chimera, CF (R&D Systems Cat#344-ER) (human, UniProt P00533 25-645).
T6 construct: Purchased Fc chimera; not shown: Fc portion of the purchased chimera
The description is as above.

For experiment [7], the target named is T7, rHuman HGF R/c-MET/Fc Chimera, CF (R&D Systems Cat#358-MT/CF) (human, UniProt P08581 25-932).
T7 construct: Purchased Fc chimera; also called HGF R/Fc; not shown: Fc portion of the purchased chimera
The experiment is described as above.

The target of experiment [8] is T8, rHuman Notch-1/Fc Chimera, CF (R&D Systems Cat#3647-TK) (human, UniProt P46531 19-526).
T8 construct: Purchased Fc chimera; not shown: Fc portion of the purchased chimera
The description is as above.

Experiment [9] concerns the target T9, rHuman CD44/Fc Chimera, CF (R&D Systems Cat#3660-CD) (human, UniProt P16070 21-220).
T9 construct: Purchased Fc chimera; not shown: Fc portion of the purchased chimera
The description is as above.

Experiment [10] deals with T10, rHuman HGF R/c-MET/Fc Chimera, CF (R&D Systems Cat#358-MT/CF) (human, UniProt P08581 25-932).
T10 construct: Bought Fc chimera; also called HGF R/Fc; hepatocyte growth factor receptor; Fc part of the bought chimera not given
Briefly: ECL (MSD Multi-Spot) binding, antigen spotted on plate; Fab 5 nM.

For experiment [11], the target named is T11, rHuman IGF-1 sR (insulin-like growth factor-1 soluble receptor), CF (R&D Systems Cat#391-GR) (human, UniProt P08069 31-932).
T11 construct: Bought soluble receptor; also called IGF-R1
The experiment in a line: ECL (MSD multi-spot), antigen on plate, Fab 50 nM.

Experiment [12] concerns the target T12, rHuman P-Cadherin/Fc Chimera, CF (R&D Systems Cat#861-PC) (human, UniProt P22223 108-654).
T12 construct: Bought Fc chimera; also called CDH3; not shown: Fc of the bought chimera
Briefly: ECL (MSD multi-spot), antigen on plate, Fab 50 nM.

Experiment [13] addresses T13, rHuman Erythropoietin R/Fc Chimera, CF (R&D Systems Cat#963-ER) (human, UniProt P19235 25-250).
T13 construct: Bought Fc chimera; also called EPO R/Fc; Epo R; not shown: Fc of the bought chimera
T13 sequence: T3 sequence
Briefly: ECL (MSD multi-spot), antigen on plate, Fab 50 nM.

The target of experiment [14] is T14, Recombinant Human DLL4 (R&D Systems Cat#1506-D4/CF) (human, UniProt Q9NR61 27-524).
T14 construct: Bought recombinant protein; also called delta-like protein 4
The experiment in a line: ECL (MSD multi-spot), antigen on plate, Fab 50 nM.

For experiment [15], the target named is T15, rHuman ErbB2/Fc Chimera, CF (R&D Systems Cat#1129-ER) (human, UniProt P04626 23-652).
T15 construct: Bought Fc chimera; also called HER2/neu; not shown: Fc of the bought chimera
Briefly: ECL (MSD multi-spot), antigen on plate, Fab 50 nM.

Experiment [16] deals with T16, rHuman EGF R/Fc Chimera, CF (R&D Systems Cat#344-ER) (human, UniProt P00533 25-645).
T16 construct: Bought Fc chimera; also called ErbB-1; not shown: Fc of the bought chimera
The experiment in a line: ECL (MSD multi-spot), antigen on plate, Fab 50 nM.

Experiment [17] addresses T17, rHuman HGF R/c-MET/Fc Chimera, CF (R&D Systems Cat#358-MT/CF) (human, UniProt P08581 25-932).
T17 construct: Bought Fc chimera; also called HGF R/Fc; not shown: Fc of the bought chimera
Briefly: ECL (MSD multi-spot), antigen on plate, Fab 50 nM.

Experiment [18] deals with T18, rHuman Notch-1/Fc Chimera, CF (R&D Systems Cat#3647-TK) (human, UniProt P46531 19-526).
T18 construct: Bought Fc chimera; not shown: Fc of the bought chimera
The experiment in a line: ECL (MSD multi-spot), antigen on plate, Fab 50 nM.

For experiment [19], the target named is T19, rHuman CD44/Fc Chimera, CF (R&D Systems Cat#3660-CD) (human, UniProt P16070 21-220).
T19 construct: Bought Fc chimera; not shown: Fc of the bought chimera
Briefly: ECL (MSD multi-spot), antigen on plate, Fab 50 nM.
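Further: blank spot per well as comparator with Hit at signal to blank ratio of 4 or more.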

B1: Fab VH5-51_IGHD5-18*01>3_IGHJ4*01_G100R & V3-4_IGLJ1*01 (Fab, V domains shown)
VH: EVQLVQSGAEVKKPGESLKISCKGSGYSFTSYWIGWVRQMPGKGLEWMGIIYPGDSDTRYSPSFQGQVTISADKSISTAYLQWSSLKASDTAMYYCARRRYSYGYDYFDYWGQGTLVTVSS
VL: QTVVTQEPSFSVSPGGTVTLTCGLSSGSVSTSYYPSWYQQTPGQAPRTLIYSTNTRSSGVPDRFSGSILGNKAALTITGAQADDESDYYCVLYMGSGISYVFGTGTKVTVL
notes: It was expressed as a Fab: CH1 with tags from Plasmid A and lambda CL from Plasmid E; also called Fab No. 23
For the molecule B1, the ECL signal was 1240 ECL signal in experiment [1]; 1020 ECL signal in experiment [2]; 994 ECL signal in experiment [3]; 19500 ECL signal in experiment [4]; 1420 ECL signal in [5]; 1110 ECL signal in experiment [6]. Also, the results for the ECL signal in experiment [7], in experiment [8] and in experiment [9] were 1230 ECL signal, 1010 ECL signal and 824 ECL signal, respectively.

B2: Fab VH1-46_IGHD6-6*01_IGHJ1*01_S102A_S103P_S104F_H111Y & L6_IGKJ1*01 (Fab, V domains shown)
VH: QVQLVQSGAEVKKPGASVKVSCKASGYTFTSYYMHWVRQAPGQGLEWMGIINPSGGSTSYAQKFQGRVTMTRDTSTSTVYMELSSLRSEDTAVYYCAREEYAPFSAEYFQYWGQGTLVTVSS
VL: not shown
notes: Fab made in E. coli; The heavy chain also carries the CH1 with Flag and His tags of Plasmid A, and the light chain the kappa constant region of Plasmid C
Take B2: in experiment [10], the ECL signal worked out at 323.

B3: Fab VH1-46_IGHD6-6*01_IGHJ1*01_S102A_S103P_S104F & L6_IGKJ1*01_S28P (Fab, V domains shown)
VH: B2 VH with Y111H
VL: EIVLTQSPATLSLSPGERATLSCRASQPVSSYLAWYQQKPGQAPRLLIYDASNRATGIPARFSGSGSGTDFTLTISSLEPEDFAVYYCQQRSNWPPWTFGQGTKVEIKR
notes: Fab
Turning to B3, the ECL signal in [11] was found to be 355 ECL signal; in [12] it was 431 ECL signal; in [13], 527 ECL signal; in experiment [14] it was 37700 ECL signal; in experiment [15], 384 ECL signal; in [16] it was 328 ECL signal. For the same molecule, the ECL signal in [17] came to 183 ECL signal; in [18] it was 477 ECL signal; in experiment [19], 340 ECL signal.
